Reference: US20240409634A1 (Janssen / Centocor, published 2024)

Target: human CD33 on CD33-expressing THP-1 cells (human, UniProt P20138 18-364)
Test: cell-based or functional assay

human CD33 on CD33-expressing THP-1 cells, sequence (P20138 18-364): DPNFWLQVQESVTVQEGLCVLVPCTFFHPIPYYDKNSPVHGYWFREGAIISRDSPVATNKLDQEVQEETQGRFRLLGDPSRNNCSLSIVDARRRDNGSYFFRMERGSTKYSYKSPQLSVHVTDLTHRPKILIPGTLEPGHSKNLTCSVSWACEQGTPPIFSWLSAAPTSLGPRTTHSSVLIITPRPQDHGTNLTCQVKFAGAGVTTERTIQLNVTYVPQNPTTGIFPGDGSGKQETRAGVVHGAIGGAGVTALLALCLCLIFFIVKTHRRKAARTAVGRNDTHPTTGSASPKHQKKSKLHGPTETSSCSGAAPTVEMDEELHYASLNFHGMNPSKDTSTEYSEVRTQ

Binder | Cytotox EC50 (pM) E:T 1:1 - 22 hrs [pM] | Cytotox EC50 (pM) E:T 1:20 - 94 hrs [pM]
CD33 antibody JL3 combined with Vdelta2 antibody 6H4 (JL3x6H4), Fab (CD33) x VHH (Vδ2) Fc construct (bispecific antibody, human IgG1, lambda, L234A L235A) heavy: QVQLQESGPGLVKPSETLSLTCSVSGGSIRNYYWSWIRQSAGKELEWFGHIFSTGHINYDSSLKSRVTMSVDTSNNQFSLKLRSVTAADTAVYYCARDNGAALFDFWGQGTLVTVSSASTKGPSVFPLAPSSKSTSGGTAALGCLVKDYFPEPVTVSWNSGALTSGVHTFPAVLQSSGLYSLSSVVTVPSSSLGTQTYICNVNHKPSNTKVDKKVEPKSCDKTHTCPPCPAPEAAGGPSVFLFPPKPKDTLMISRTPEVTCVVVSVSHEDPEVKFNWYVDGVEVHNAKTKPREEQYNSTYRVVSVLTVLHQDWLNGKEYKCKVSNKALPAPIEKTISKAKGQPREPQVYTLPPSREEMTKNQVSLSCAVKGFYPSDIAVEWESNGQPENNYKTTPPVLDSDGSFFLVSKLTVDKSRWQQGNVFSCSVMHEALHNRFTQKSLSLSPGK light: not shown EVQLVESGGGLVQAGGSLRLSCAASGRPFSNYGMGWFRQAPGKKREFVAGISWSGGSTDYADSVKGRFTISRDNAKNTVYLQMNSLKPEDTAVYYCAAVFSGAETAYYPSDDYDYWGQGTQVTVSSEPKSSDKTHTCPPCPAPEAAGGPSVFLFPPKPKDTLMISRTPEVTCVVVSVSHEDPEVKFNWYVDGVEVHNAKTKPREEQYNSTYRVVSVLTVLHQDWLNGKEYKCKVSNKALPAPIEKTISKAKGQPREPQVYTLPPSREEMTKNQVSLWCLVKGFYPSDIAVEWESNGQPENNYKTTPPVLDSDGSFFLYSKLTVDKSRWQQGNVFSCSVMHEALHNHYTQKSLSLSPGK | 2.5 | 12
CD33 antibody JL5 combined with Vdelta2 antibody 6H4 (JL5x6H4), Fab (CD33) x VHH (Vδ2) Fc construct (bispecific antibody, human IgG1, lambda, L234A L235A) heavy: QVQLQESGPGLVKPSETLSLTCSVSGASIRNYYWSWIRQTAGKGLEWLGHIYSTGNIHYNPSLKSRVTMSVDTSNNQFSLKLRSVTAADTAVYYCARDNGAALFDYWGQGTLVTVSSASTKGPSVFPLAPSSKSTSGGTAALGCLVKDYFPEPVTVSWNSGALTSGVHTFPAVLQSSGLYSLSSVVTVPSSSLGTQTYICNVNHKPSNTKVDKKVEPKSCDKTHTCPPCPAPEAAGGPSVFLFPPKPKDTLYITREPEVTCVVVSVSHEDPEVKFNWYVDGVEVHNAKTKPREEQYNSTYRVVSVLTVLHQDWLNGKEYKCKVSNKALPAPIEKTISKAKGQPREPQVYTLPPSREEMTKNQVSLSCAVKGFYPSDIAVEWESNGQPENNYKTTPPVLDSDGSFFLVSKLTVDKSRWQQGNVFSCSVMHEALHNRFTQKSLSLSPGK light: not shown EVQLVESGGGLVQAGGSLRLSCAASGRPFSNYGMGWFRQAPGKKREFVAGISWSGGSTDYADSVKGRFTISRDNAKNTVYLQMNSLKPEDTAVYYCAAVFSGAETAYYPSDDYDYWGQGTQVTVSSEPKSSDKTHTCPPCPAPEAAGGPSVFLFPPKPKDTLYITREPEVTCVVVSVSHEDPEVKFNWYVDGVEVHNAKTKPREEQYNSTYRVVSVLTVLHQDWLNGKEYKCKVSNKALPAPIEKTISKAKGQPREPQVYTLPPSREEMTKNQVSLWCLVKGFYPSDIAVEWESNGQPENNYKTTPPVLDSDGSFFLYSKLTVDKSRWQQGNVFSCSVMHEALHNHYTQKSLSLSPGK | 5.4 | 15
CD33 antibody JL6 combined with Vdelta2 antibody 6H4 (JL6x6H4), Fab (CD33) x VHH (Vδ2) Fc construct (bispecific antibody, human IgG1, lambda, L234A L235A) heavy: QVQLQESGPGLVKPSETLSLTCTVSGGSISSYYWGWIRQPPGKGLEWIGYIYYSGSTNYNPSLKSRVTISVDTSKNQFSLKLSSVTAADTAVYYCARMWEILGFDPWGQGTLVTVSSASTKGPSVFPLAPSSKSTSGGTAALGCLVKDYFPEPVTVSWNSGALTSGVHTFPAVLQSSGLYSLSSVVTVPSSSLGTQTYICNVNHKPSNTKVDKKVEPKSCDKTHTCPPCPAPEAAGGPSVFLFPPKPKDTLMISRTPEVTCVVVSVSHEDPEVKFNWYVDGVEVHNAKTKPREEQYNSTYRVVSVLTVLHQDWLNGKEYKCKVSNKALPAPIEKTISKAKGQPREPQVYTLPPSREEMTKNQVSLSCAVKGFYPSDIAVEWESNGQPENNYKTTPPVLDSDGSFFLVSKLTVDKSRWQQGNVFSCSVMHEALHNRFTQKSLSLSPGK light: not shown EVQLVESGGGLVQAGGSLRLSCAASGRPFSNYGMGWFRQAPGKKREFVAGISWSGGSTDYADSVKGRFTISRDNAKNTVYLQMNSLKPEDTAVYYCAAVFSGAETAYYPSDDYDYWGQGTQVTVSSEPKSSDKTHTCPPCPAPEAAGGPSVFLFPPKPKDTLMISRTPEVTCVVVSVSHEDPEVKFNWYVDGVEVHNAKTKPREEQYNSTYRVVSVLTVLHQDWLNGKEYKCKVSNKALPAPIEKTISKAKGQPREPQVYTLPPSREEMTKNQVSLWCLVKGFYPSDIAVEWESNGQPENNYKTTPPVLDSDGSFFLYSKLTVDKSRWQQGNVFSCSVMHEALHNHYTQKSLSLSPGK | 6.2 | 30
